Publication PMC6200776

What was measured:
[1] = biological target: NanoLuc-VEGFR2 (UniProt P35968); test: FRET or BRET; NanoBRET saturation: live HEK293T cells stably expressing the N-terminal NanoLuc receptor; increasing fluorescent VEGF with or without 100 nM unlabelled VEGF; 60 min, 37°C, HBSS/0.1% BSA
[2] = biological target: NanoLuc-VEGFR2 (UniProt P35968); test: FRET or BRET; NanoBRET kinetics: live HEK293T cells with NanoLuc receptor, furimazine 5 min before 1-20 nM fluorescent VEGF, read every 30 s at 37°C; global fit of five concentrations; KD as koff/kon
[3] = biological target: VEGF121a-TMR; test: fluorescence SDS-PAGE with and without DTT; purified VEGF-TMR isoforms in the presence or absence of 100 mM DTT; dimer in non-reducing conditions
[4] = biological target: NanoLuc-NRP1 (UniProt O14786); test: FRET or BRET; NanoBRET full displacement: live HEK293T cells with NanoLuc receptor; increasing unlabelled VEGF (R&D Systems) added together with five fixed concentrations of fluorescent VEGF; 60 min, 37°C, HBSS/0.1% BSA
Sequence of UniProt O14786 (O14786 22-923): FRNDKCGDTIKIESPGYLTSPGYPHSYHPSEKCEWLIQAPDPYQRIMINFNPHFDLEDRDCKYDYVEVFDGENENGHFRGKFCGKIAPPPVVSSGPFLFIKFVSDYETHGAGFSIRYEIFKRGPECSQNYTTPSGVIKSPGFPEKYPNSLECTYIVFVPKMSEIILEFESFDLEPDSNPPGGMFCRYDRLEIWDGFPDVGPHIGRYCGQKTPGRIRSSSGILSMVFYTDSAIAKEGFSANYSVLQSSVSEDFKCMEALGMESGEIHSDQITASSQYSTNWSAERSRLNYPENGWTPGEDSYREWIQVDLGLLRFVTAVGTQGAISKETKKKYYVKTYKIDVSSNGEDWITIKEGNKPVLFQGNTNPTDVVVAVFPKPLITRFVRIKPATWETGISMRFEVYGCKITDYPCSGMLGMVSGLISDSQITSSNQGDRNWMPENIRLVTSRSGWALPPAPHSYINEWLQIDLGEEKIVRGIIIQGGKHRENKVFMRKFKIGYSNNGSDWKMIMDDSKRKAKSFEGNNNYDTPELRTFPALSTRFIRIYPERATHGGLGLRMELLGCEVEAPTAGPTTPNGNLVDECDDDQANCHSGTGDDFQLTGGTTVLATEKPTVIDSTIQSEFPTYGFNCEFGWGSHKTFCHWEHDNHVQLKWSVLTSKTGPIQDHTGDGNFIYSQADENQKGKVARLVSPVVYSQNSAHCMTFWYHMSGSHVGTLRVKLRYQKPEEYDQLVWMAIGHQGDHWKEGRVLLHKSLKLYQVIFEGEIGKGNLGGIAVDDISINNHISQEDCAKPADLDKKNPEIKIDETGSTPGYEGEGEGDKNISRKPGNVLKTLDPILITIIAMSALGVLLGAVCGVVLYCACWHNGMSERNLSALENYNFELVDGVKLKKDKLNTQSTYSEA

[5] = biological target: NanoLuc-NRP1 (UniProt O14786); test: FRET or BRET; NanoBRET saturation: live HEK293T cells stably expressing the N-terminal NanoLuc receptor; increasing fluorescent VEGF with or without 100 nM unlabelled VEGF; 60 min, 37°C, HBSS/0.1% BSA
[6] = biological target: NanoLuc-NRP1 (UniProt O14786); test: FRET or BRET; NanoBRET kinetics: live HEK293T cells with NanoLuc receptor, furimazine 5 min before 1-20 nM fluorescent VEGF, read every 30 s at 37°C; global fit of five concentrations; KD as koff/kon
[7] = biological target: NanoLuc-VEGFR2 (UniProt P35968)
[8] = biological target: VEGF165b-TMR; test: fluorescence SDS-PAGE with and without DTT; purified VEGF-TMR isoforms in the presence or absence of 100 mM DTT; dimer in non-reducing conditions

Sequence of UniProt P35968 (P35968 20-1356): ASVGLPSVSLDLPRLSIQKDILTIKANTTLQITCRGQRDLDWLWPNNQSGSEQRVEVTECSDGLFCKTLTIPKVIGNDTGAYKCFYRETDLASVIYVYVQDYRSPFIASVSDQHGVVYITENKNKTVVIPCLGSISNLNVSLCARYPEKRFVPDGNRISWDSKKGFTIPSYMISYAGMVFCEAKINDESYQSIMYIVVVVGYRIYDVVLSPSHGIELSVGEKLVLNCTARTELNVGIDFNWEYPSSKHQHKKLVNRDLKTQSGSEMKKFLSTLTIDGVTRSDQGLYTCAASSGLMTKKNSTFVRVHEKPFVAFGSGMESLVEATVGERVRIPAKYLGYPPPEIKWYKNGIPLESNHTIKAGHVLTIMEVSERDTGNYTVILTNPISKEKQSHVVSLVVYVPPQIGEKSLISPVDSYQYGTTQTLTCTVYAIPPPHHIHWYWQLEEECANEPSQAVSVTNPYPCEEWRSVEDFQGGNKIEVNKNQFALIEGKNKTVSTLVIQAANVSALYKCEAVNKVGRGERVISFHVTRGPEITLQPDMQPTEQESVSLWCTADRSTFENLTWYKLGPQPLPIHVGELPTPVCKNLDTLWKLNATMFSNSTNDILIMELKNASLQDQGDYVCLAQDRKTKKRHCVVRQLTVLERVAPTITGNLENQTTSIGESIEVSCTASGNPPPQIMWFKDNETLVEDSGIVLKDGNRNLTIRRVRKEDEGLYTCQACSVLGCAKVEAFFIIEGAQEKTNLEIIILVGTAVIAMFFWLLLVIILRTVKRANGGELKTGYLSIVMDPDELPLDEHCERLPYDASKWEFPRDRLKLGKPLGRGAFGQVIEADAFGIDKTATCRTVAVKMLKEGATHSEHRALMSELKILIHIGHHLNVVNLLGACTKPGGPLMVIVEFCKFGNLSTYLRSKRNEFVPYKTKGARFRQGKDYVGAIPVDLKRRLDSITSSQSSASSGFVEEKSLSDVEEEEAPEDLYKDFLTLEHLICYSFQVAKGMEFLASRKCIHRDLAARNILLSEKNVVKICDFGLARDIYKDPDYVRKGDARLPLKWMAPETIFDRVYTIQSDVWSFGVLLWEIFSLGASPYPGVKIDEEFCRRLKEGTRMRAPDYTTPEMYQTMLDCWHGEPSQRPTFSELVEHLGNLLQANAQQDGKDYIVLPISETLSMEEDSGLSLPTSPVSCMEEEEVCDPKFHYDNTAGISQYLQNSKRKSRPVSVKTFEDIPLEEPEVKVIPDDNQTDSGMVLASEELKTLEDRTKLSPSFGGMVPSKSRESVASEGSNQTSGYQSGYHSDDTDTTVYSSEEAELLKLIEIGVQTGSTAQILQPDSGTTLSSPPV

Substance: VEGF121a-TMR (ligand)
- Kd [1]: 5.54 nM
- Kd [2]: 5.75 nM
- koff [2]: 0.000833 s⁻¹
- kon [2]: 142000 M⁻¹ s⁻¹
- stoichiometry N [3]: 2

Substance: VEGF165a (ligand)
- Ki [4]: 0.1 nM
- pKi [4]: 9.54

Substance: VEGF165a-TMR (ligand)
- Kd [4]: 1.11 nM
- Kd [1]: 2.03 nM
- Kd [5]: 4.41 nM
- Kd [2]: 6.64 nM
- koff [2]: 0.001 s⁻¹
- kon [2]: 257000 M⁻¹ s⁻¹
- Kd [6]: 4.95 nM
- koff [6]: 0.00433 s⁻¹
- kon [6]: 1.18e+06 M⁻¹ s⁻¹

Substance: VEGF165b-TMR (ligand)
- Kd [1]: 9.53 nM
- pEC50 of the NFAT reporter gene response, as told again in the discussion with another number [7]: 8.28
- Kd [2]: 11.3 nM
- koff [2]: 0.001 s⁻¹
- kon [2]: 122000 M⁻¹ s⁻¹
- stoichiometry N [8]: 2
